Measured values published in patent publication US5187153A, “Methods of treatment using Alzheimer's amyloid polypeptide derivatives” (Scios Nova Inc., priority 1990, dated 1993).
Where no end group is shown, it is not given here.

Target: Trypsin (Homo sapiens, UniProt P07477)
Assay: Trypsin inhibition assay, release of p-nitroaniline from N-benzoyl-D-arginine-p-nitroaniline
Format: biochemical
Details: HPLC peaks of the purified inhibitor
Protocol: All 8 oligonucleotides encoding either the phoA or ompA fusions were mixed together and treated with ligase. […] The ligated constructs were then ligated into the NdeI-HindIII sites of the vector pTRP233. The ligated vectors were transfected into E. coli strain MC1061 and Amp^R colonies selected. […] Miniprep DNA was used to transfect strains W3110 and JE5505. Small scale cultures of each of the three strains were grown and induced with IAA overnight. Culture supernatants were examined for trypsin inhibitory activity. Trypsin is assayed for its ability to hydrolyze the synthetic substrate N-benzoyl-D-arginine-p-nitroaniline to release p-nitroaniline (pNA). The release of pNA as a function of time is easily monitored in a spectrophotomer and can be quantitated to measure trypsin activity. The inhibitor is detected in this assay by virtue of its ability to bind to trypsin and prevent hydrolysis of the substrate by trypsin. Inhibitory activity was detected in the culture medium for both ompA and phoA constructs in JE5505 but not W3110 or MC1061. Expression levels appeared to be higher with the phoA construct and so only this construct was used for subsequent experiments.

peak 4: major HPLC peak of the purified inhibitor; full length A4i with 3 disulfide bridges (EVCSEQAETGPCRAMISRWYFDVTEGKCAPFFYGGCGGNRNNFDTEEYCMAVCGSAM; disulfide (positions not given here); UniProt P05067 289-345, looked up, fragment)
activity in the trypsin inhibition assay: active
